Reference: publication PMC8458290 (Nature Communications, 2021)

B1: nanobody C1 (monovalent VHH, pOPINO construct) (VHH)
VHH: QVQLVESGGGLVQPGGSLRLSCAASGFTNDFYSIAWFRQAPGKEREGVSWLSVSDNTPTYVDSVKDRFTISRHNANNTVYLQMNMLKPEDTAIYYCAAGRFAGRDTWPSSYDYWGQGTQVTVSS
B2: nanobody F2 (monovalent VHH, pOPINO construct) (VHH)
VHH: QVQLVESGGGLVQAGGSLRLACIASGRTFHSYVMAWFRQAPGKEREFVAAISWSSTPTYYGESVKGRFTISRDNAKNTVYLQMNRLKPEDTAVYFCAADRGESYYYTRPTEYEFWGQGTQVTVSS

Target: SARS-CoV-2 receptor-binding domain (amino acids 330-532), Victoria strain, biotinylated (SARS-CoV-2, Wuhan/Victoria (B), UniProt P0DTC2, biotinylated (site not stated))
Test: SPR
Conditions: both partners purified

Row | Binder | Kd [nM] | T1/2 [min]
1 | B1 | 0.615 | 20
2 | B2 | 0.04 | –
